# Source: US20040259096A1, “Receptor capture assay” (priority 2001, published 2004)
# B1: competitor GRE (TGR1/TGR2) (dsDNA)
# DNA 1: GCTGTACAGGATGTTCTGCC
# DNA 2: GGCAGAACATCCTGTACAGC
# B2: competitor ERE (DX1/DX3) (dsDNA)
# DNA 1: CTAGAAAGTCAGGTCACAGTGACCTG
# DNA 2: CAGGTCACTGTGACCTGACTTTCTAG
# B3: ERE tracer (VER1/VER2) (dsDNA)
# DNA 1: CAACTTCATCCACGTTCACCGTCCAAAGTCAGGTCACAGTGACCTGATCAAAGTTGTACCTGTCCTTGGCTCTTC
# DNA 2: GAAGAGCCAAGGACAGGTACAACTTTGATCAGGTCACTGTGACCTGACTTTGGACGGTGAACGTGGATGAAGTTG
# B4: GRE tracer (BGGR1/BGGR2) (dsDNA)
# DNA 1: CAACTTCATCCACGTTCACCGCTGTACAGGATGTTCTGCCGTACCTGTCCTTGGCTCTTC
# DNA 2: GAAGAGCCAAGGACAGGTACGGCAGAACATCCTGTACAGCGGTGAACGTGGATGAAGTTG
# How the values were obtained:
# [1] = system: HIF-1α; experiment: Detecting HIF-1α activation in cytosolic extracts of HeLa S3 cells, anti-ARNT capture, real-time PCR; type: cell-based, human
# Method: HIF-1 DNA binding activity was induced as follows. Actively dividing HeLa S3 cells were treated with 125 μM CoCl2 for 4 hr at 37° C. Cells were washed 2× in tissue culture dishes with ice cold phosphate-buffered saline (PBS) before harvesting. Cells were pelleted at 420×g for 5 min, washed twice with PBS and resuspended in 5 packed cell volumes of buffer A (10 mM Tris-HCl (pH 7.6), 1.5 mM MgCl2, 10 mM KCl, 1 mM DTT) supplemented with Sigma protease inhibitor cocktail (P 8340, Sigma Chemical Co., St. Louis, Mo.). After incubation on ice for 15 min, cells were pelleted at 450×g for 5 min, resuspended in 2 packed cell volumes of buffer C (0.42 M KCl, 20 mM Tris-HCl (pH 7.6), 20% glycerol, 1.5 MM MgCl2, 1 mM DTT and 0.2 mM EDTA) supplemented with Sigma protease inhibitor cocktail. The cells were disrupted using a Branson Sonifier 450 (Branson Ultrasonics Corp., Danbury, Conn.) fitted with a microtip for two 20-second pulses at a 45% duty cycle. After centrifugation at 20,000×g for 5 min, the supernatant was designated as cytosolic extract. The cytosolic extracts from treated and untreated cells were aliquoted and stored at −80° C. […]
# Primers PRIHa and PRIHb (0.9 μM final) were added to 2×PCR SYBR® Green Master Mix (Applied Biosystems Cat No. 4309155) and the Master Mix made 1× with Water. […] 50 μl of master mix from each well was transferred to a PCR plate, capped and analyzed by real-time PCR using an Opticon thermocycler (MJ Research, Inc., Watham, Mass.). […]
# In brief cytosolic extracts prepared from untreated or CoCl2 treated cells were diluted and exposed to nucleic acid-tracer. […] DNA amplification was monitored using real-time PCR. The process takes only a few hours to complete and provides qualitative or quantitative results.
# The PCR data is typically plotted as a primary growth curve. For quantitative and comparative purposes, a threshold cycle (Ct) is defined for each sample. […] The Ct value is typically calculated near the first cycle where the PCR products are amplified at the greatest rate (no reagent is limiting) and where the amplified product is detectable above background. […]
# [2] = biological target: T1, Glucocorticoid receptor (UniProt P04150 P04150:1-777); experiment: competition; 100-fold excess reduces tracer signal 68 to 44; settings: tags: baculovirus expressed, Panvera P2187 (so in the source)
# T1 sequence (P04150 whole entry, one chain of several): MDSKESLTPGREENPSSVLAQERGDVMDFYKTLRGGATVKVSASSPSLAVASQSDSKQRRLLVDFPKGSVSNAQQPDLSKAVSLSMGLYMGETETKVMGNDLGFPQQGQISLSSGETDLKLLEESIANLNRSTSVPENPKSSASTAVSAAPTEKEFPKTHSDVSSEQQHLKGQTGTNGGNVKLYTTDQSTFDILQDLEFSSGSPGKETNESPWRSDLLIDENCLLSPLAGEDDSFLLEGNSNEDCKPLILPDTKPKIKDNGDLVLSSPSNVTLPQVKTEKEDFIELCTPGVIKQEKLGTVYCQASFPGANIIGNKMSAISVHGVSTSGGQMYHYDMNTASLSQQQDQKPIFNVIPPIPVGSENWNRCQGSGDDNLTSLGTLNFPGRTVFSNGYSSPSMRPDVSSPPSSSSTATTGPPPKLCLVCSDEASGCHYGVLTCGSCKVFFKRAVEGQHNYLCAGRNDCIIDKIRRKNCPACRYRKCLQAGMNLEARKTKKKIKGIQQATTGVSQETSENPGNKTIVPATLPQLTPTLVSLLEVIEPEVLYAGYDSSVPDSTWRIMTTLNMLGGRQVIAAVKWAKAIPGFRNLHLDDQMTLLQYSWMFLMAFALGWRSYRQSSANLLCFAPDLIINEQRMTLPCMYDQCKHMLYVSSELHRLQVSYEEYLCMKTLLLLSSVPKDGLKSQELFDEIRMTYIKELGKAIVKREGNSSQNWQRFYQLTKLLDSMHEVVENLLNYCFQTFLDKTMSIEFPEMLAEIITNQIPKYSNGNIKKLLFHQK
# [3] = biological target: T2, Estrogen receptor alpha (Homo sapiens, UniProt P03372 P03372:1-595); experiment: competition; 100-fold excess reduces tracer signal 104 to 81; settings: tags: baculovirus expressed, Panvera P2187; chain copies: 2
# T2 sequence (P03372 whole entry, one chain of several): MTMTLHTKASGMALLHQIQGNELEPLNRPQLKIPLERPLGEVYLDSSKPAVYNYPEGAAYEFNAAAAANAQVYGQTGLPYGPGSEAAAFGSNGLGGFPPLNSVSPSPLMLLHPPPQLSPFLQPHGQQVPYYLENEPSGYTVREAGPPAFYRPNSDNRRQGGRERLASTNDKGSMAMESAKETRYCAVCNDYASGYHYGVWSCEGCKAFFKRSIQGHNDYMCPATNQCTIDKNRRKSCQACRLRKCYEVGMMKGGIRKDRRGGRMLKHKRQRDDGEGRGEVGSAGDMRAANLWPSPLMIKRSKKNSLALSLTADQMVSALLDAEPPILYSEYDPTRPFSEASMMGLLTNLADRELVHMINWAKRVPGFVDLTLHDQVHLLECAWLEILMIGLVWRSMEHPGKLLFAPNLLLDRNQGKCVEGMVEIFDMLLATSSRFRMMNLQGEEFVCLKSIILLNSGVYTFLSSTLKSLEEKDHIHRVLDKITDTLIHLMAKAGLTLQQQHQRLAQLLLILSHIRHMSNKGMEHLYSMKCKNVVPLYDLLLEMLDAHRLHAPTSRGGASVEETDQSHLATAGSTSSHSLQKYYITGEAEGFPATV
# [4] = biological target: T2, Estrogen receptor alpha; experiment: anti-ER capture PCR; DMSO 137, estradiol […]; 25 mM Tris pH 8.0, 50 mM KCl, 4 C; ligand independent; settings: tags: baculovirus expressed, Panvera P2187; chain copies: 2
# [5] = biological target: T1, Glucocorticoid receptor; experiment: anti-GR capture PCR; DMSO 82, dexamethasone 68; 25 mM Tris pH 7.9, 60 mM KCl, 4 C; ligand independent; settings: tags: baculovirus expressed, Panvera P2187 (so in the source)
molecule,measurement,setting,value
"[Cl][Co][Cl] [CoCl2, cobalt chloride]",Ct Value,"[1]; cytosol of treated cells (CoCl2), plus 100x DNA competitor",22.52
same,Ct Value,"[1]; cytosol of treated cells (CoCl2, 4 hr), no DNA competitor, untreated 23.08",20.47
same,"difference of Ct values, treated versus untreated cytosolic preparations",[1]; no DNA competitor,more than 2.60 units
B1,binding result,[2],binds
B2,binding result,[3],binds
B3,binding result,[4],binds
B4,binding result,[5],binds
